Test results taken from PMC5431157.

What was measured:
human thrombin (human) [1] = biological target: human thrombin (human) (UniProt P00734)
human thrombin (human) [2] = biological target: human thrombin (human) (UniProt P00734); remark: listed apart in the source
human thrombin (human) [3] = biological target: human thrombin (human) (UniProt P00734); test: enzyme inhibition kinetics (chromogenic substrate S-2238); 0.1 nM thrombin, 15 µM S-2238, sculptin 0-500 pM; 50 mM phosphate, 150 mM NaCl, 0.1% PEG 6000, pH 7.4, 37 °C; fractional steady-state velocities fitted to Morrison's tight binding equation
human thrombin (human) [4] = biological target: human thrombin (human) (UniProt P00734); test: enzyme inhibition kinetics (chromogenic substrate S-2238); 100 pM thrombin, 15 µM S-2238, sculptin 0-50 pM; 50 mM phosphate, 150 mM NaCl, 0.1% PEG 6000, pH 7.4, 37 °C; progress curves, kobs against sculptin concentration gives kon and koff; Ki = koff/kon
human thrombin (human) [5] = biological target: human thrombin (human) (UniProt P00734); test: enzyme inhibition kinetics (chromogenic substrate S-2238); 0.1 nM thrombin added to sculptin (0-80 pM) and S-2238 at different concentrations; 50 mM phosphate, 150 mM NaCl, 0.1% PEG 6000, pH 7.4, 37 °C; Hanes-Woolf plot, intercepts against inhibitor concentration, confirmed by non-linear regression for competitive inhibition

For recombinant sculptin (natural protein), the residual activity of thrombin (100 pM, chromogenic substrate) with 1 nM sculptin, 6 h at 37 °C (human thrombin (human) [1]) was 97%, the IC50 of inhibition of thrombin (0.1 nM) hydrolysis of 15 µM S-2238, dose-response fit (human thrombin (human) [2]) was 86.6 pM and the Ki (human thrombin (human) [3]) was 19.5 pM. The Ki (human thrombin (human) [4]) was 16.1 pM, the koff (human thrombin (human) [4]) was 0.00065 s⁻¹ and the kon (human thrombin (human) [4]) was 4.04e+07 M⁻¹ s⁻¹. It also gave a Ki (human thrombin (human) [5]) of 18.3 pM.
